Data as given in patent US20120294796A1 (MacroGenics, published 2012).

Legend:
[1] = biological target: T1, human B7-H3 on the surface of human cell lines (human, UniProt Q5ZPR3 29-534); assay: FACS, fluorescein-labeled mAb, A498 cells
T1 construct: whole, on cells; also called B7-H3 present on the surface of cancer cells
T1 sequence (looked up): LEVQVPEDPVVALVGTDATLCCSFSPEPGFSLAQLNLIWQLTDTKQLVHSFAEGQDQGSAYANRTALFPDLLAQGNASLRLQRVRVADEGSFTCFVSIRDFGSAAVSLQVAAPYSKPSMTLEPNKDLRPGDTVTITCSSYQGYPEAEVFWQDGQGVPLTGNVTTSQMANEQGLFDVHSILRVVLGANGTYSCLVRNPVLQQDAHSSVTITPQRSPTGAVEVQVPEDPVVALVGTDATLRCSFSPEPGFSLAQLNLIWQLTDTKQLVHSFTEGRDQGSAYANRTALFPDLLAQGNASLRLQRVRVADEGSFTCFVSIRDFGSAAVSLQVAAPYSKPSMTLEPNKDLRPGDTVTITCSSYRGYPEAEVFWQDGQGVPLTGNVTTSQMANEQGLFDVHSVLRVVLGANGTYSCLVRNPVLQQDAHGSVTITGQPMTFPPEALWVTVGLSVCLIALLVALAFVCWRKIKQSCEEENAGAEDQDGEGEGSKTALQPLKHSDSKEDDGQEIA

[2] = biological target: T1, human B7-H3 on the surface of human …; assay: FACS, fluorescein-labeled mAb, LNCaP cells
[3] = biological target: T1, human B7-H3 on the surface of human …; assay: FACS, fluorescein-labeled mAb, A549 cells

Binder	FACS MFI [1]	FACS MFI [2]	FACS MFI [3]
PRCA157 (antibody, IgG1, V domains shown) VH: EVQQVESGGDLVKPGGSLKLSCAASGFTFSSYGMSWVRQTPDKRLEWVATINSGGSNTYYPDSLKGRFTISRDNAKNTLYLQMRSLKSEDTAMYYCARHDGGAMDYWGQGTSVTVSS VL: DIQMTQSPASLSVSVGETVTITCRASESIYSYLAWYQQKQGKSPQLLVYNTKTLPEGVPSRFSGSGSGTQFSLKINSLQPEDFGRYYCQHHYGTPPWTFGGGTNLEIK	58.8 MFI	16.4 MFI	44.3 MFI
BRCA69D (antibody, IgG1, V domains shown, also called BRCA69A (probable misprint)) VH: QVQLQQSGAELARPGASVKLSCKASGYTFTSYWMQWVKQRPGQGLEWIGTIYPGDGDTRYTQKFKGKATLTADKSSSTAYMQLSSLASEDSAVYYCARRGIPRLWYFDVWGAGTTVTVSS VL: DIQMTQTTSSLSASLGDRVTISCRASQDISNYLNWYQQKPDGTVKLLIYYTSRLHSGVPSRFSGSGSGTDYSLTIDNLEQEDIATYFCQQGNTLPPTFGGGTKLEIK	84.1 MFI	92.4 MFI	60.5 MFI
BRCA84D (antibody, IgG1, V domains shown) VH: DVQLVESGGGLVQPGGSRKLSCAASGFTFSSFGMHWVRQAPEKGLEWVAYISSDSSAIYYADTVKGRFTISRDNPKNTLFLQMTSLRSEDTAMYYCGRGRENIYYGSRLDYWGQGTTLTVSS VL: DIAMTQSQKFMSTSVGDRVSVTCKASQNVDTNVAWYQQKPGQSPKALIYSASYRYSGVPDRFTGSGSGTDFTLTINNVQSEDLAEYFCQQYNNYPFTFGSGTKLEIK	30.6 MFI	16.4 MFI	25 MFI
